The assay has as its target human GLP-1 receptor (GLP-1R), stably expressed in FlpIn CHO cells (human) (UniProt P43220).
UniProt P43220, sequence (P43220 24-463): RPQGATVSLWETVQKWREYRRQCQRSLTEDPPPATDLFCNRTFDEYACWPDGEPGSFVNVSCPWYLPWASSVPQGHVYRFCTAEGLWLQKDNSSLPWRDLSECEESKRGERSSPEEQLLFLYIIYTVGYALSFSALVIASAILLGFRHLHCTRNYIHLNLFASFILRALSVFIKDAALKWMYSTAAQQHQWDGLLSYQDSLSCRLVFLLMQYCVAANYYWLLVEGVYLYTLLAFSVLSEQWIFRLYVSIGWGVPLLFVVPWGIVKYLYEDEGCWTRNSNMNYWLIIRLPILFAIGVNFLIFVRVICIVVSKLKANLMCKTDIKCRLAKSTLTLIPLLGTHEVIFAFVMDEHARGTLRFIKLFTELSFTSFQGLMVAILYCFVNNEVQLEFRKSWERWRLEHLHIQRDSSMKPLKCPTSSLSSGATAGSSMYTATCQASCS

Regarding glucagon-like peptide-1 [GLP-1(7–37)], the cAMP accumulation in FlpIn CHO cells stably expressing human GLP-1R, pEC50 is 10.8.

For the origin of these results see paper PMC6860926 (Journal of the American Chemical Society, 2019).
